Data published in the RNAGym collection of RNA variant scans (doi:10.7554/elife.80360).

B1: Hammerhead Ribozyme (parent)
chain: ACCGGAUGUGCUUUCCGGUCUGAUGAGUCCGUGAGGACGAAACAG

Variants of: B1
Experiment: self-cleavage, relative activity (ratio to wild type); higher = more cleavage; co-transcriptional

Compared with ACCGGAUGUGCUUUCCGGUCUGAUGACUCGGUGAGGACGAAACAG [G27C C30G], ACCGGAUGUGCUUUCCGGUCUGGUGAGUCCGUGAGGACGAAACAA [A23G G45A] is lower in self-cleavage: 0.459 for the first, 0.331 for the second.

First: ACCGGAUGUGCUUUCGCGUCUGAUGAGUCCGUGAGGACGAAACAG [C16G G17C]
Second: ACCGGGUGUGCUUUCCGGUAUGAUGAGUCCGUGAGGACGAAACAG [A6G C20A]
The self-cleavage of the first is higher: 0.445 for the first, 0.4 for the second.

Going from ACCGGAUGUGCUUUCCGGUCUGAUGAGUCCGUGAGGCCGUAACAG [A37C A40U] to ACCGGAUGAGCUUUCCGGUCUGAUGAGUUCGUGAGGACGAAACAG [U9A C29U], the self-cleavage rises from 0.268 to 0.829.

Compared with ACCGGAUGUGGUUUCCGGUCUGAUGAGCCCGUGAGGACGAAACAG [C11G U28C], AACGGAUGUGCUUUCCGGUCUGAUGAGUCCGUGAGGAAGAAACAG [C2A C38A] is lower in self-cleavage: 1.13 for the first, 0.381 for the second.

Going from ACCGGAUGUGCUUUCCGGUCUGAUGAGUCUGUGAUGACGAAACAG [C30U G35U] to ACCGGAUGUGCUUUCCGGUCUGAUGAGUCCGUUAGGACGAAAAAG [G33U C43A], the self-cleavage falls from 1.18 to 0.466.

Going from ACCGGGUGUGCUUUCCGGUCUGAUGAGACCGUGAGGACGAAACAG [A6G U28A] to AACGGAUGUGCUUUCCGGUCAGAUGAGUCCGUGAGGACGAAACAG [C2A U21A], the self-cleavage falls from 0.468 to 0.351.

First: ACUGGAUGUGCUUUCCCGUCUGAUGAGUCCGUGAGGACGAAACAG [C3U G17C]
Second: ACCGGAUGUGCUUUCCGGUUUGAUGAGUCCGUGAGGACGAAACAG [C20U]
The self-cleavage of the first is lower: 0.675 for the first, 0.697 for the second.

Compared with ACCGGAUGUGCUUUCCGGUCUGAUGACGCCGUGAGGACGAAACAG [G27C U28G], ACCGGAUGUGCUUUCAGGUCUGAUGAGUCCGUGUGGACGAAACAG [C16A A34U] is higher in self-cleavage: 0.389 for the first, 0.719 for the second.

Going from CCCGGCUGUGCUUUCCGGUCUGAUGAGUCCGUGAGGACGAAACAG [A1C A6C] to ACCGGAUGUGAUUUCCGGUCUGGUGAGUCCGUGAGGACGAAACAG [C11A A23G], the self-cleavage falls from 0.393 to 0.371.

Compared with ACCGGAUGUGCUUUCCGGUCUGAUGAGUCCCUCAGGACGAAACAG [G31C G33C], ACCGGAUGUGCUUUCCGGUCUGAUGAGUCCCUGCGGACGAAACAG [G31C A34C] is higher in self-cleavage: 0.969 for the first, 1 for the second.

Going from ACCGGAUAUGCUUUCCGGUCUGAUGAGUCAGUGAGGACGAAACAG [G8A C30A] to ACCGGAUGUGCCUUCCGGUCUGAUGAUUCCGUGAGGACGAAACAG [U12C G27U], the self-cleavage falls from 0.929 to 0.581.

Compared with ACCGGAUGUGCUUUCGGGUAUGAUGAGUCCGUGAGGACGAAACAG [C16G C20A], CCCGGAUGUGCUUUCCGGUCUGAAGAGUCCGUGAGGACGAAACAG [A1C U24A] is higher in self-cleavage: 0.336 for the first, 0.471 for the second.

Going from ACCGGAUGUGCUUUCCGACCUGAUGAGUCCGUGAGGACGAAACAG [G18A U19C] to ACCGGAUGUGCUUUCCGGUCUGAUGAGUCCGGGAGGACGAAAGAG [U32G C43G], the self-cleavage falls from 0.402 to 0.303.

First: ACCGGAUGUGCUUACCGGUCUGAUGAGUCCGUGAGGACGAAGCAG [U14A A42G]
Second: ACCGGAUGUGCUUUCCGGUCAGAUGAGUCCGUGAGGACGAAACGG [U21A A44G]
The self-cleavage of the first is lower: 0.279 for the first, 0.932 for the second.

Going from ACCGGAUGUGAUUUCCGGUCUGAUGAGUCCGUGAGAACGAAACAG [C11A G36A] to ACCGGAUGUGCUUUCCGGUCUGUUGCGUCCGUGAGGACGAAACAG [A23U A26C], the self-cleavage falls from 0.847 to 0.379.

First: ACCGGAUGUGCUUGCCGGUCUGAUGAGUCCGUAAGGACGAAACAG [U14G G33A]
Second: ACCGGAUGUGCUUUCCGGUCCAAUGAGUCCGUGAGGACGAAACAG [U21C G22A]
The self-cleavage of the first is higher: 0.518 for the first, 0.335 for the second.

First: ACCGGAUGUGCUUUCCGGGCUGAUGAGUACGUGAGGACGAAACAG [U19G C29A]
Second: ACCGGAUGUGCUUUCCGGUCUGUUGAGUCCUUGAGGACGAAACAG [A23U G31U]
The self-cleavage of the first is lower: 0.257 for the first, 0.477 for the second.

First: ACCGGAUGUGCUUUCCGGUCUGAUGAGUCCGUGAGGACCAGACAG [G39C A41G]
Second: ACCGGGUGUGCUUUCCGGGCUGAUGAGUCCGUGAGGACGAAACAG [A6G U19G]
The self-cleavage of the first is higher: 0.328 for the first, 0.264 for the second.

Compared with ACCGGAUGUGCUUGCCGGUCUGAUGAGCCCGUGAGGACGAAACAG [U14G U28C], ACCUGAUGUGCUUUCCGGUCCGAUGAGUCCGUGAGGACGAAACAG [G4U U21C] is lower in self-cleavage: 0.602 for the first, 0.352 for the second.

Compared with ACCGGCUGUGCUUUCCGGUCAGAUGAGUCCGUGAGGACGAAACAG [A6C U21A], ACCGGACGGGCUUUCCGGUCUGAUGAGUCCGUGAGGACGAAACAG [U7C U9G] is higher in self-cleavage: 0.475 for the first, 0.667 for the second.

Compared with ACCUGAUGUGCUUUCCGGUCUCAUGAGUCCGUGAGGACGAAACAG [G4U G22C], ACCGGAUGUGCGUUCCGGUCUGUUGAGUCCGUGAGGACGAAACAG [U12G A23U] is lower in self-cleavage: 0.345 for the first, 0.317 for the second.

Compared with ACCGGAUUUGCUUUCCGGUCUGGUGAGUCCGUGAGGACGAAACAG [G8U A23G], ACCGGAUGUGCUUUCCGGUCUGAUGAGUCCGUGAGCGCGAAACAG [G36C A37G] is higher in self-cleavage: 0.363 for the first, 0.748 for the second.

Compared with ACCGGACGUGCUUUUCGGUCUGAUGAGUCCGUGAGGACGAAACAG [U7C C15U], GCCGGAUGUGCUUUCCCGUCUGAUGAGUCCGUGAGGACGAAACAG [A1G G17C] is lower in self-cleavage: 0.995 for the first, 0.585 for the second.

Going from ACCGGAUGUGCUUUCCGGUCUGAUGAGUCCCUGAGGACGAUACAG [G31C A41U] to ACCGGAUGUGCUUUCCCGUCUGAUGAGUCCGUUAGGACGAAACAG [G17C G33U], the self-cleavage rises from 0.381 to 0.623.

Compared with ACCGGGUGUGCUUUCCGGUCUGAUGAGUCCGUGAGGACGAAUCAG [A6G A42U], ACUGGAUGUGCUUUCCGGUCUGAUGAGUCCGUGAGGACGAAGCAG [C3U A42G] is higher in self-cleavage: 0.219 for the first, 0.393 for the second.

Going from ACCGGAUGUGCUUUCCGGUAUGAUGAGUCCGUGAGGAUGAAACAG [C20A C38U] to ACCGGAUGUGCUUUCCGGUUUGAUGAGUCCCUGAGGACGAAACAG [C20U G31C], the self-cleavage rises from 0.385 to 0.489.

First: ACCGGAUGUGCUUUCCGGUCUAGUGAGUCCGUGAGGACGAAACAG [G22A A23G]
Second: ACCGGAUGUGCUUUGCGGUCUGAUGAGUCCGAGAGGACGAAACAG [C15G U32A]
The self-cleavage of the first is lower: 0.313 for the first, 0.875 for the second.

Compared with ACCGGAUGUGCUUUCCGGUCUGAAGAGUCCCUGAGGACGAAACAG [U24A G31C], ACCGGAUGUGCUUUCCAGUCUGAUGAGUCCGUGAGGACGAAACGG [G17A A44G] is lower in self-cleavage: 0.814 for the first, 0.742 for the second.

ACCGGAUGUGCUUCCCGGUCUGAUGAGUGCGUGAGGACGAAACAG [U14C C29G] gave a self-cleavage of 0.497.
